# Measured values reported in paper PMC3813916.
# pKd: −log10 of the molar value.
# Molecular target: HLA-DR1 on transfected murine fibroblasts (DAP.3-DR1) (human)
# Experiment: radioligand binding
substance,measurement,value
staphylococcal enterotoxin B (from UniProt P01552 28-266) (natural protein),pKd,6.85
